Assay [1] deals with T1, mouse FXIIa (mouse, UniProt Q80YC5 20-597, limits assumed).
T1 construct: also called mouse α-FXIIa (MFXIIA; Molecular Innovations)
T1 sequence (looked up): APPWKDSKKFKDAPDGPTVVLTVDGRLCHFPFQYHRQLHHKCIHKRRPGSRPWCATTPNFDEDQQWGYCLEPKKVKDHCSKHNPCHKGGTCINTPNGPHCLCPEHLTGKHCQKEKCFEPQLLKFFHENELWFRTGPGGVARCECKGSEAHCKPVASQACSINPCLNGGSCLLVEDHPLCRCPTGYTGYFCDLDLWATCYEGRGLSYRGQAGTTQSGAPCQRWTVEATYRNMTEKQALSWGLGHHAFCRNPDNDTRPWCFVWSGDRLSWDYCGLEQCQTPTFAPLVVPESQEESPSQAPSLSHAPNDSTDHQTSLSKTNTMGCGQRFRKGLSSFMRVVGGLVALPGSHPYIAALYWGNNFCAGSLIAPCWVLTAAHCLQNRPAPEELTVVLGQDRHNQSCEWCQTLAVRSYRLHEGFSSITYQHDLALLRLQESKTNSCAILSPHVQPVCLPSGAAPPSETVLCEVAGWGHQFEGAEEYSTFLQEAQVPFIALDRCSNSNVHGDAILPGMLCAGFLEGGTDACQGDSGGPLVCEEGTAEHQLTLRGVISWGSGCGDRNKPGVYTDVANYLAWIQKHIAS
The assay is described as follows: protease inhibition assay.

The target in assay [2] is T2, human β-FXIIa (HFXIIAB; Molecular Innovations) (human, UniProt P00748 354-362; P00748 373-615, limits assumed).
T2 construct: domain: catalytic domain; Bought; also called human b-FXIIa; human FXIIa
T2 sequence (P00748 373-615 limits assumed, one chain of several): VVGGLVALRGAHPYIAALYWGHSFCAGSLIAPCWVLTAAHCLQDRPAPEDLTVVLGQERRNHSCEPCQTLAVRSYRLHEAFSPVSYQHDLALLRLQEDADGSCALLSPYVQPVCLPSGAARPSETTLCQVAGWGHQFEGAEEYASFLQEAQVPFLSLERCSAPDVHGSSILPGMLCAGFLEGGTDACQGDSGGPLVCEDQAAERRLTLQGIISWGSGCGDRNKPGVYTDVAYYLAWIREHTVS
Briefly: protease inhibition assay.

Assay [3] concerns the target T2, human β-FXIIa (HFXIIAB; Molecular …). The assay is described as follows: protease inhibition assay. The source holds these as a separate data set.
The target is the same in assay [4]. The assay is described as follows: protease inhibition assay (FIG. 6).
For assay [5] the target is unchanged. Briefly: protease inhibition assay (Table in FIG. 6).
The target is the same in assay [6]. The assay is described as follows: protease inhibition assay. The source holds these as a separate data set.
For assay [7] the target is unchanged. The assay is described as follows: protease inhibition assay. This is another data set of the same source.

Starred links: 1 amine or outer side, 2 acyl side, 3 side chain; linkers in the order of their positions; H or OH if unused. Positions of bridges follow the written chain, without caps; N, C: chain ends. Non-standard residues stand in square brackets, D forms with d. No end group written: not given here. TATA = O=C(CC[*:1])N1CN(C(=O)CC[*:2])CN(C(=O)CC[*:3])C1; Phe(4-F) = N[C@@H](Cc1ccc(F)cc1)C(=O)O; β3hR = N=C(N)NCCC[C@H](N)CC(=O)O

Broadly, the Ki is a dissociation constant, usually derived from enzyme kinetics or from competition with a known ligand. Low values mean a stronger hold on the target, high ones a looser hold on the target.

B1: JS17m (FXII618, Arg8 to His) (peptide)
peptide: H-RCFRLPCHQLRCR-NH2
modifications: linker 2-7-12 via TATA
SMILES: CC(C)C[C@@H]1NC(=O)[C@H](CCC(N)=O)NC(=O)[C@H](Cc2c[nH]cn2)NC(=O)[C@@H]2CSCCC(=O)N3CN(CN(C3)C(=O)CCSC[C@H](NC(=O)[C@@H](N)CCCNC(=N)N)C(=O)N[C@@H](Cc3ccccc3)C(=O)N[C@@H](CCCNC(=N)N)C(=O)N[C@@H](CC(C)C)C(=O)N3CCC[C@H]3C(=O)N2)C(=O)CCSC[C@@H](C(=O)N[C@@H](CCCNC(=N)N)C(N)=O)NC(=O)[C@H](CCCNC(=N)N)NC1=O
notes: also called Arg8→His (H)
B1: the values for the inhibition constant Ki in assay [1] and in assay [2] were 80 nM and 21.6 nM, respectively.

B2: JS34 (rsCF^4…) (peptide)
peptide: H-[dR][dS]C[Phe(4-F)]RLPCHQLRCR-NH2
modifications: linker 3-8-13 via TATA
SMILES: CC(C)C[C@@H]1NC(=O)[C@H](CCC(N)=O)NC(=O)[C@H](Cc2c[nH]cn2)NC(=O)[C@@H]2CSCCC(=O)N3CN(CN(C3)C(=O)CCSC[C@H](NC(=O)[C@@H](CO)NC(=O)[C@H](N)CCCNC(=N)N)C(=O)N[C@@H](Cc3ccc(F)cc3)C(=O)N[C@@H](CCCNC(=N)N)C(=O)N[C@@H](CC(C)C)C(=O)N3CCC[C@H]3C(=O)N2)C(=O)CCSC[C@@H](C(=O)N[C@@H](CCCNC(=N)N)C(N)=O)NC(=O)[C@H](CCCNC(=N)N)NC1=O
In assay [3], B2 had a Ki of 0.64 nM.

B3: JS33-R (rsCF^4…^bC) (peptide)
peptide: H-[dR][dS]C[Phe(4-F)]RLPCHQL[β3hR]C-NH2
modifications: linker 3-8-13 via TATA
SMILES: CC(C)C[C@@H]1NC(=O)[C@H](CCC(N)=O)NC(=O)[C@H](Cc2c[nH]cn2)NC(=O)[C@@H]2CSCCC(=O)N3CN(CN(C3)C(=O)CCSC[C@H](NC(=O)[C@@H](CO)NC(=O)[C@H](N)CCCNC(=N)N)C(=O)N[C@@H](Cc3ccc(F)cc3)C(=O)N[C@@H](CCCNC(=N)N)C(=O)N[C@@H](CC(C)C)C(=O)N3CCC[C@H]3C(=O)N2)C(=O)CCSC[C@@H](C(N)=O)NC(=O)C[C@H](CCCNC(=N)N)NC1=O
On to B3, for which, in assay [3], affinity was put at a Ki of 0.4 nM.

B4: FXII618 variant with P in position six replaced by S (peptide)
peptide: RCFRLSCRQLRCRW-NH2
modifications: linker 2-7-12 via TATA; N-terminus assumed
SMILES: CC(C)C[C@@H]1NC(=O)[C@H](CCC(N)=O)NC(=O)[C@H](CCCNC(=N)N)NC(=O)[C@@H]2CSCCC(=O)N3CN(CN(C3)C(=O)CCSC[C@H](NC(=O)[C@@H](N)CCCNC(=N)N)C(=O)N[C@@H](Cc3ccccc3)C(=O)N[C@@H](CCCNC(=N)N)C(=O)N[C@@H](CC(C)C)C(=O)N[C@@H](CO)C(=O)N2)C(=O)CCSC[C@@H](C(=O)N[C@@H](CCCNC(=N)N)C(=O)N[C@@H](Cc2c[nH]c3ccccc23)C(N)=O)NC(=O)[C@H](CCCNC(=N)N)NC1=O
The molecule B4 had an inhibition constant Ki in assay [4] of less than 100 nM.

B5: peptide 5 (peptide 2, Phe3 to leucine) (peptide)
peptide: RCLRLPCRQLRCRW-NH2
modifications: linker 2-7-12 via TATA; N-terminus assumed
SMILES: CC(C)C[C@@H]1NC(=O)[C@H](CCC(N)=O)NC(=O)[C@H](CCCNC(=N)N)NC(=O)[C@@H]2CSCCC(=O)N3CN(CN(C3)C(=O)CCSC[C@H](NC(=O)[C@@H](N)CCCNC(=N)N)C(=O)N[C@@H](CC(C)C)C(=O)N[C@@H](CCCNC(=N)N)C(=O)N[C@@H](CC(C)C)C(=O)N3CCC[C@H]3C(=O)N2)C(=O)CCSC[C@@H](C(=O)N[C@@H](CCCNC(=N)N)C(=O)N[C@@H](Cc2c[nH]c3ccccc23)C(N)=O)NC(=O)[C@H](CCCNC(=N)N)NC1=O
notes: Number tied to residue by the order of the list
B5: the Ki in assay [5] is less than 100 nM. The “fold reduction of activity vs peptide 2” value in assay [6] is greater than 2 fold.

B6: peptide 15 (peptide 2, Pro6 to alanine) (peptide)
peptide: RCFRLACRQLRCRW-NH2
modifications: linker 2-7-12 via TATA; N-terminus assumed
SMILES: CC(C)C[C@@H]1NC(=O)[C@H](CCCNC(=N)N)NC(=O)[C@H](Cc2ccccc2)NC(=O)[C@@H](NC(=O)[C@@H](N)CCCNC(=N)N)CSCCC(=O)N2CN3CN(C2)C(=O)CCSC[C@@H](C(=O)N[C@@H](CCCNC(=N)N)C(=O)N[C@@H](Cc2c[nH]c4ccccc24)C(N)=O)NC(=O)[C@H](CCCNC(=N)N)NC(=O)[C@H](CC(C)C)NC(=O)[C@H](CCC(N)=O)NC(=O)[C@H](CCCNC(=N)N)NC(=O)[C@H](CSCCC3=O)NC(=O)[C@H](C)NC1=O
In turn, B6 yielded a Ki in assay [4] of less than 100 nM. Also, in assay [6], the “fold reduction of activity vs peptide 2” value was less than 2 fold.

B7: peptide 18 (peptide 2, Pro6 to leucine) (peptide)
peptide: RCFRLLCRQLRCRW-NH2
modifications: linker 2-7-12 via TATA; N-terminus assumed
SMILES: CC(C)C[C@@H]1NC(=O)[C@H](CCC(N)=O)NC(=O)[C@H](CCCNC(=N)N)NC(=O)[C@@H]2CSCCC(=O)N3CN(CN(C3)C(=O)CCSC[C@H](NC(=O)[C@@H](N)CCCNC(=N)N)C(=O)N[C@@H](Cc3ccccc3)C(=O)N[C@@H](CCCNC(=N)N)C(=O)N[C@@H](CC(C)C)C(=O)N[C@@H](CC(C)C)C(=O)N2)C(=O)CCSC[C@@H](C(=O)N[C@@H](CCCNC(=N)N)C(=O)N[C@@H](Cc2c[nH]c3ccccc23)C(N)=O)NC(=O)[C@H](CCCNC(=N)N)NC1=O
Regarding B7, in assay [4], the Ki was less than 100 nM. In assay [6], the “fold reduction of activity vs peptide 2” value is less than 2 fold.

B8: peptide 4 (peptide 2, Phe3 to tyrosine) (peptide)
peptide: RCYRLPCRQLRCRW-NH2
modifications: linker 2-7-12 via TATA; N-terminus assumed
SMILES: CC(C)C[C@@H]1NC(=O)[C@H](CCC(N)=O)NC(=O)[C@H](CCCNC(=N)N)NC(=O)[C@@H]2CSCCC(=O)N3CN(CN(C3)C(=O)CCSC[C@H](NC(=O)[C@@H](N)CCCNC(=N)N)C(=O)N[C@@H](Cc3ccc(O)cc3)C(=O)N[C@@H](CCCNC(=N)N)C(=O)N[C@@H](CC(C)C)C(=O)N3CCC[C@H]3C(=O)N2)C(=O)CCSC[C@@H](C(=O)N[C@@H](CCCNC(=N)N)C(=O)N[C@@H](Cc2c[nH]c3ccccc23)C(N)=O)NC(=O)[C@H](CCCNC(=N)N)NC1=O
notes: as for B5
In assay [5], B8 yielded a Ki of less than 100 nM. In addition, the “fold reduction of activity vs peptide 2” value in assay [6] was greater than 2 fold.

B9: JS7m (FXII618, Arg1 to D-Arg-D-Ser) (peptide)
peptide: H-[dR][dS]CFRLPCRQLRCR-NH2
modifications: linker 3-8-13 via TATA
SMILES: CC(C)C[C@@H]1NC(=O)[C@H](CCC(N)=O)NC(=O)[C@H](CCCNC(=N)N)NC(=O)[C@@H]2CSCCC(=O)N3CN(CN(C3)C(=O)CCSC[C@H](NC(=O)[C@@H](CO)NC(=O)[C@H](N)CCCNC(=N)N)C(=O)N[C@@H](Cc3ccccc3)C(=O)N[C@@H](CCCNC(=N)N)C(=O)N[C@@H](CC(C)C)C(=O)N3CCC[C@H]3C(=O)N2)C(=O)CCSC[C@@H](C(=O)N[C@@H](CCCNC(=N)N)C(N)=O)NC(=O)[C@H](CCCNC(=N)N)NC1=O
notes: also called Arg1→D-Arg-D-Ser (rs)
Regarding B9, the inhibition constant Ki in assay [7] amounted to 18 nM.

For H-[dR][dS]CFRLPCHQL[β3hR]CR-NH2 (linker 3-8-13 via TATA) [JS36 (rs…^bCR)], affinity in assay [3] was put at a Ki of 1 nM.

With H-RC[3‑benzothienylalanine]RLPCRQLRCRW-NH2 (linker 2-7-12 via TATA) [FXII618 variant with F in position three replaced by 3-benzothienylalanine], the inhibition constant (Ki) in assay [5] was less than 50 nM.

B10: JS33 (rsCF^4…^bCR) (peptide)
peptide: H-[dR][dS]C[Phe(4-F)]RLPCHQL[β3hR]CR-NH2
modifications: linker 3-8-13 via TATA
SMILES: CC(C)C[C@@H]1NC(=O)[C@H](CCC(N)=O)NC(=O)[C@H](Cc2c[nH]cn2)NC(=O)[C@@H]2CSCCC(=O)N3CN(CN(C3)C(=O)CCSC[C@H](NC(=O)[C@@H](CO)NC(=O)[C@H](N)CCCNC(=N)N)C(=O)N[C@@H](Cc3ccc(F)cc3)C(=O)N[C@@H](CCCNC(=N)N)C(=O)N[C@@H](CC(C)C)C(=O)N3CCC[C@H]3C(=O)N2)C(=O)CCSC[C@@H](C(=O)N[C@@H](CCCNC(=N)N)C(N)=O)NC(=O)C[C@H](CCCNC(=N)N)NC1=O
notes: rs is D-Arg-D-Ser; F^4F is 4-fluoro-phenylalanine
Turning to B10, the Ki in assay [3] was 0.36 nM.

B11: JS35 (rsCF^4…^bCR) (peptide)
peptide: H-[dR][dS]C[Phe(4-F)]RLPCRQL[β3hR]CR-NH2
modifications: linker 3-8-13 via TATA
SMILES: CC(C)C[C@@H]1NC(=O)[C@H](CCC(N)=O)NC(=O)[C@H](CCCNC(=N)N)NC(=O)[C@@H]2CSCCC(=O)N3CN(CN(C3)C(=O)CCSC[C@H](NC(=O)[C@@H](CO)NC(=O)[C@H](N)CCCNC(=N)N)C(=O)N[C@@H](Cc3ccc(F)cc3)C(=O)N[C@@H](CCCNC(=N)N)C(=O)N[C@@H](CC(C)C)C(=O)N3CCC[C@H]3C(=O)N2)C(=O)CCSC[C@@H](C(=O)N[C@@H](CCCNC(=N)N)C(N)=O)NC(=O)C[C@H](CCCNC(=N)N)NC1=O
On to B11, for which, in assay [3], the inhibitory constant (Ki) was 0.32 nM.

(Values after patent US20180118786A1 (ECOLE POLYTECHNIQUE FEDERALE DE LAUSANNE EPFL, published 2018).)
